Assay [1] addresses LvTIM-Cys47Ala (Litopenaeus vannamei).
For assay [2], the target named is triosephosphate isomerase from Litopenaeus vannamei (LvTIM), wild type (Litopenaeus vannamei). Put plainly: SEC.

For LvTIM-Cys47Ala (enzyme), the catalytic efficiency (kcat/Km) of LvTIM-Cys47Ala, similar to wild-type LvTIM in assay [1] stood at 2.33e+06 M⁻¹ s⁻¹. Usually stoichiometry N stands for a count of units in the complex or per binding partner. “triosephosphate isomerase from Litopenaeus vannamei (LvTIM), wild type (enzyme)” returned a stoichiometry N in assay [2] of 2.

(Values after paper PMC5071168.)
